These results are taken from the supplement of paper PMC5998384.

In series [1] the test system is HeLa Kyoto. As to the kind of experiment: solubility change mitosis vs G1/S (difference of NP-40 vs SDS log2 ratios) (log2 ratio difference); higher = more soluble in mitosis.
In series [2] the test system is HeLa Kyoto. As to the kind of experiment: thermal stability score vs G1/S (z-score of summed log2 fold changes over temperatures); higher = more thermally stable than in G1/S.
Series [3] has as its system HeLa Kyoto. As to the kind of experiment: melting temperature (median over replicates), in situ; higher = more thermally stable.
For series [4], the system named is HeLa Kyoto. As to the kind of experiment: solubility in G1/S (NP-40 vs SDS abundance) (log2 ratio); higher = more soluble. The conditions noted are these: cell cycle stage: G1/S.
Where [5] appears, read: cell cycle stage: early G1 (4.5 h after nocodazole release).
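Wherever melting temperature (median over replicates), in situ is given: HeLa Kyoto cells synchronized by double thymidine or nocodazole block, proteins quantified by TMT10plex mass spectrometry, three independent biological replicates.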
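Wherever solubility change mitosis vs G1/S (difference of NP-40 vs SDS log2 ratios) is given: synchronized HeLa Kyoto cells (double thymidine block for G1/S, nocodazole release for mitosis), protein amounts in NP-40 versus SDS lysates quantified by mass spectrometry, three biological replicates.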
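Wherever solubility in G1/S (NP-40 vs SDS abundance) is given: HeLa Kyoto cells arrested at G1/S by double thymidine block, proteins quantified by TMT10plex mass spectrometry in mild NP-40 versus SDS extracts, three biological replicates.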
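Wherever thermal stability score vs G1/S (z-score of summed log2 fold changes over temperatures) is given: synchronized HeLa Kyoto cells, proteins quantified by TMT10plex mass spectrometry, three biological replicates, mitosis taken 0.5 h after nocodazole release, G1/S directly after double thymidine block.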

PHF23, sequence (chain, as listed by the source): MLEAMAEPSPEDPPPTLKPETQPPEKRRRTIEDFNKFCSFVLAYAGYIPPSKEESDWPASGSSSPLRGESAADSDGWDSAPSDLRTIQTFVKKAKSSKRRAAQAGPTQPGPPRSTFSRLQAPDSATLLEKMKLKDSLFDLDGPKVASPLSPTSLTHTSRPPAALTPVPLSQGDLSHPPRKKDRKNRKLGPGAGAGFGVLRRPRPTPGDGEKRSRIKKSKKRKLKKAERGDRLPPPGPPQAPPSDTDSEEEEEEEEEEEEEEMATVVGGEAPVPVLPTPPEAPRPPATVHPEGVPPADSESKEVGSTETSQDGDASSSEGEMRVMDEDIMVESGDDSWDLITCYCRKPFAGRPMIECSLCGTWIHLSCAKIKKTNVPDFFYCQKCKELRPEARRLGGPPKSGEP

Regarding “MAELGAGGDGHRGGDGAVRSETAPDSYKVQDKKNASSRPASAISGQNNNHSGNKPDPPPVLRVDDRQRLARERREEREKQLAAREIVWLEREERARQHYEKHLEERKKRLEEQRQKEERRRAAVEEKRRQRLEEDKERHEAVVRRTMERSQKPKQKHNRWSWGGSLHGSPSIHSADPDRRSVSTMNLSKYVDPVISKRLSSSSATLLNSPDRARRLQLSPWESSVVNRLLTPTHSFLARSKSTAALSGEAASCSPIIMPYKAAHSRNSMDRPKLFVTPPEGSSRRRIIHGTASYKKERERENVLFLTSGTRRAVSPSNPKARQPARSRLWLPSKSLPHLPGTPRPTSSLPPGSVKAAPAQVRPPSPGNIRPVKREVKVEPEKKDPEKEPQKVANEPSLKGRAPLVKVEEATVEERTPAEPEVGPAAPAMAPAPASAPAPASAPAPAPVPTPAMVSAPSSTVNASASVKTSAGTTDPEEATRLLAEKRRLAREQREKEERERREQEELERQKREELAQRVAEERTTRREEESRRLEAEQAREKEEQLQRQAEERALREREEAERAQRQKEEEARVREEAERVRQEREKHFQREEQERLERKKRLEEIMKRTRRTEATDKKTSDQRNGDIAKGALTGGTEVSALPCTTNAPGNGKPVGSPHVVTSHQSKVTVESTPDLEKQPNENGVSVQNENFEEIINLPIGSKPSRLDVTNSESPEIPLNPILAFDDEGTLGPLPQVDGVQTQQTAEVI [MAP7]”, in the series on HeLa Kyoto [1], the “solubility change mitosis (log2)” value was found to be 0.704. Besides, the thermal stability score in the series on HeLa Kyoto [2] (setting [5]) was -5.44; with HeLa Kyoto [2] (cell cycle stage: mitosis), -8.57. Further, the results for the melting temperature in the series on HeLa Kyoto [3] (cell cycle stage: G1/S) and with HeLa Kyoto [3] (cell cycle stage: mitosis) were 54.3 °C and 52.1 °C, respectively. For the same substance, the “solubility in G1/S (log2)” value in the series on HeLa Kyoto [4] is -0.661.

Take “MESSSSSNSYFSVGPTSPSAVVLLYSKELKKWDEFEDILEERRHVSDLKFAMKCYTPLVYKGITPCKPIDIKCSVLNSEEIHYVIKQLSKESLQSVDVLREEVSEILDEMSHKLRLGAIRFCAFTLSKVFKQIFSKVCVNEEGIQKLQRAIQEHPVVLLPSHRSYIDFLMLSFLLYNYDLPVPVIAAGMDFLGMKMVGELLRMSGAFFMRRTFGGNKLYWAVFSEYVKTMLRNGYAPVEFFLEGTRSRSAKTLTPKFGLLNIVMEPFFKREVFDTYLVPISISYDKILEETLYVYELLGVPKPKESTTGLLKARKILSENFGSIHVYFGDPVSLRSLAAGRMSRSSYNLVPRYIPQKQSEDMHAFVTEVAYKMELLQIENMVLSPWTLIVAVLLQNRPSMDFDALVEKTLWLKGLTQAFGGFLIWPDNKPAEEVVPASILLHSNIASLVKDQVILKVDSGDSEVVDGLMLQHITLLMCSAYRNQLLNIFVRPSLVAVALQMTPGFRKEDVYSCFRFLRDVFADEFIFLPGNTLKDFEEGCYLLCKSEAIQVTTKDILVTEKGNTVLEFLVGLFKPFVESYQIICKYLLSEEEDHFSEEQYLAAVRKFTSQLLDQGTSQCYDVLSSDVQKNALAACVRLGVVEKKKINNNCIFNVNEPATTKLEEMLGCKTPIGKPATAKL [GNPAT]”: the “solubility change mitosis (log2)” value with HeLa Kyoto [1] is -0.163. In addition, the thermal stability score was -0.31 in the series on HeLa Kyoto [2] (setting [5]) and -0.298 in the series with HeLa Kyoto [2] (cell cycle stage: mitosis). Moreover, the results for the melting temperature in the series on HeLa Kyoto [3] (cell cycle stage: G1/S) and in the series on HeLa Kyoto [3] (cell cycle stage: mitosis) were 53.4 °C and 53.7 °C, respectively. Further, the “solubility in G1/S (log2)” value in the series on HeLa Kyoto [4] was -0.227.

On to “MGARASGGPLARAGLLLLLLLLLLLGLLAPGAQGARGRGGAEKNSYRRTVNTFSQSVSSLFGEDNVRAAQKFLARLTERFVLGVDMFVETLWKVWTELLDVLGLDVSNLSQYFSPASVSSSPARALLLVGVVLLAYWFLSLTLGFTFSVLHVVFGRFFWIVRVVLFSMSCVYILHKYEGEPENAVLPLCFVVAVYFMTGPMGFYWRSSPSGPSNPSNPSVEEKLEHLEKQVRLLNIRLNRVLESLDRSKDK [BRI3BP]”, for which, in the series on HeLa Kyoto [1], the “solubility change mitosis (log2)” value was determined as 0.0237. The figures for the thermal stability score with HeLa Kyoto [2] (setting [5]) and in the series with HeLa Kyoto [2] (cell cycle stage: mitosis) were -0.814 and -3.07, respectively. Moreover, the melting temperature came to 55.1 °C in the series on HeLa Kyoto [3] (cell cycle stage: G1/S) and 53.1 °C in the series with HeLa Kyoto [3] (cell cycle stage: mitosis). For the same substance, in the series with HeLa Kyoto [4], the “solubility in G1/S (log2)” value is -0.138.

As for “MAVKKIAIFGATGQTGLTTLAQAVQAGYEVTVLVRDSSRLPSEGPRPAHVVVGDVLQAADVDKTVAGQDAVIVLLGTRNDLSPTTVMSEGARNIVAAMKAHGVDKVVACTSAFLLWDPTKVPPRLQAVTDDHIRMHKVLRESGLKYVAVMPPHIGDQPLTGAYTVTLDGRGPSRVISKHDLGHFMLRCLTTDEYDGHSTYPSHQYQ [BLVRB]”, the “solubility change mitosis (log2)” value in the series with HeLa Kyoto [1] was -0.116. The figures for the thermal stability score in the series on HeLa Kyoto [2] (setting [5]) and in the series on HeLa Kyoto [2] (cell cycle stage: mitosis) were 4.14 and 2.47, respectively. The melting temperature in the series on HeLa Kyoto [3] (cell cycle stage: G1/S) stood at 50.4 °C; in the series on HeLa Kyoto [3] (cell cycle stage: mitosis), 50.7 °C. Moreover, the “solubility in G1/S (log2)” value in the series on HeLa Kyoto [4] turned out to be 0.417.

With PHF23, the “solubility change mitosis (log2)” value in the series with HeLa Kyoto [1] worked out at 0.0233. For the same substance, the thermal stability score in the series on HeLa Kyoto [2] (setting [5]) is -0.742; with HeLa Kyoto [2] (cell cycle stage: mitosis), 0.2. The melting temperature stood at 51.1 °C in the series with HeLa Kyoto [3] (cell cycle stage: G1/S) and 53.2 °C with HeLa Kyoto [3] (cell cycle stage: mitosis). Further, the “solubility in G1/S (log2)” value in the series on HeLa Kyoto [4] turned out to be 0.107.

In the case of “MSVPSALMKQPPIQSTAGAVPVRNEKGEISMEKVKVKRYVSGKRPDYAPMESSDEEDEEFQFIKKAKEQEAEPEEQEEDSSSDPRLRRLQNRISEDVEERLARHRKIVEPEVVGESDSEVEGDAWRMEREDSSEEEEEEIDDEEIERRRGMMRQRAQERKNEEMEVMEVEDEGRSGEESESESEYEEYTDSEDEMEPRLKPVFIRKKDRVTVQEREAEALKQKELEQEAKRMAEERRKYTLKIVEEETKKELEENKRSLAALDALNTDDENDEEEYEAWKVRELKRIKRDREDREALEKEKAEIERMRNLTEEERRAELRANGKVITNKAVKGKYKFLQKYYHRGAFFMDEDEEVYKRDFSAPTLEDHFNKTILPKVMQVKNFGRSGRTKYTHLVDQDTTSFDSAWGQESAQNTKFFKQKAAGVRDVFERPSAKKRKTT [MFAP1]”, the “solubility change mitosis (log2)” value in the series on HeLa Kyoto [1] worked out at 0.782. The values for the thermal stability score with HeLa Kyoto [2] (setting [5]) and in the series with HeLa Kyoto [2] (cell cycle stage: mitosis) were -4 and -4.38, respectively. In addition, the results for the melting temperature in the series on HeLa Kyoto [3] (cell cycle stage: G1/S) and with HeLa Kyoto [3] (cell cycle stage: mitosis) were 57.2 °C and 54.3 °C, respectively. Also, the “solubility in G1/S (log2)” value in the series with HeLa Kyoto [4] was -0.901.

As for “MRRFLLLYATQQGQAKAIAEEICEQAVVHGFSADLHCISESDKYDLKTETAPLVVVVSTTGTGDPPDTARKFVKEIQNQTLPVDFFAHLRYGLLGLGDSEYTYFCNGGKIIDKRLQELGARHFYDTGHADDCVGLELVVEPWIAGLWPALRKHFRSSRGQEEISGALPVASPASSRTDLVKSELLHIESQVELLRFDDSGRKDSEVLKQNAVNSNQSNVVIEDFESSLTRSVPPLSQASLNIPGLPPEYLQVHLQESLGQEESQVSVTSADPVFQVPISKAVQLTTNDAIKTTLLVELDISNTDFSYQPGDAFSVICPNSDSEVQSLLQRLQLEDKREHCVLLKIKADTKKKGATLPQHIPAGCSLQFIFTWCLEIRAIPKKAFLRALVDYTSDSAEKRRLQELCSKQGAADYSRFVRDACACLLDLLLAFPSCQPPLSLLLEHLPKLQPRPYSCASSSLFHPGKLHFVFNIVEFLSTATTEVLRKGVCTGWLALLVASVLQPNIHASHEDSGKALAPKISISPRTTNSFHLPDDPSIPIIMVGPGTGIAPFIGFLQHREKLQEQHPDGNFGAMWLFFGCRHKDRDYLFRKELRHFLKHGILTHLKVSFSRDAPVGEEEAPAKYVQDNIQLHGQQVARILLQENGHIYVCGDAKNMAKDVHDALVQIISKEVGVEKLEAMKTLATLKEEKRYLQDIWS [MTRR]”, in the series with HeLa Kyoto [1], the “solubility change mitosis (log2)” value is -0.105. The figures for the thermal stability score in the series on HeLa Kyoto [2] (setting [5]) and in the series on HeLa Kyoto [2] (cell cycle stage: mitosis) were 0.212 and 0.326, respectively. Further, the melting temperature in the series on HeLa Kyoto [3] (cell cycle stage: G1/S) worked out at 50.1 °C; in the series on HeLa Kyoto [3] (cell cycle stage: mitosis), 50.2 °C. Also, the “solubility in G1/S (log2)” value with HeLa Kyoto [4] was found to be 0.0379.
